This note sets out measurements from paper PMC3906126 (2013).

One may read the Kd as the equilibrium constant for the complex coming apart. Higher therefore signals a looser complex.

The assay addresses T1, ErbB4 PY3 motif (Homo sapiens, UniProt Q15303).
T1 chain: KPGTVLPPPPYRHRNTVV

The molecule DSEDELPPGWEERTTKDGWVYYANHTEEKTQWEHPKTGKR [WWOX WW1] came in with a Kd of about 100 µM.
